T1: Tho1 N-terminal SAP domain (Saccharomyces cerevisiae, UniProt P40040 1-50)
T1 chain: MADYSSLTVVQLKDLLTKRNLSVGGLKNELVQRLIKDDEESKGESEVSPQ

B1: random dsDNA 12-mer (dsDNA)
DNA 1: TCCTGATCAGGA
DNA 2: TCCTGATCAGGA
B2: 30-mer dsRNA (structured_RNA)
RNA: GGACAGCUGUCCCUUCGGGGACAGCUGUCC

What was measured:
[1] = biological target: T1, Tho1 N-terminal SAP domain; test: NMR (15N HSQC); 200 uM protein, 200 uM DNA; 15N HSQC, 200 uM protein and oligo; typical NMR buffer 20 mM potassium phosphate pH 6.5, 100 mM NaCl, 5 mM beta-mercaptoethanol, 10% D2O, 25 C; conditions: protein: recombinant; tags: His6-lipoyl fusion removed by TEV; 15N-labelled; blunt, self-complementary, 2 copies of one strand
[2] = biological target: T1, Tho1 N-terminal SAP domain; test: NMR (15N HSQC); 200 uM protein; 15N HSQC, 200 uM protein and oligo; typical NMR buffer 20 mM potassium phosphate pH 6.5, 100 mM NaCl, 5 mM beta-mercaptoethanol, 10% D2O, 25 C; conditions: protein: recombinant; tags: His6-lipoyl fusion removed by TEV; 15N-labelled; called dsRNA

Binder | binding result [1] | binding result [2]
B1 | binds | –
B2 | – | no binding

From publication PMC4909252, “High-resolution NMR structures of the domains of Saccharomyces cerevisiae Tho1”
